Assay results: patent publication US20030124664A1

Target: human growth hormone (hGH) with the N-terminal phenylalanine, expressed and secreted from plasmid phGH4R (human) (UniProt P01241)
Assay: cell-based or functional assay

Chain of human growth hormone (hGH) with the N-terminal phenylalanine, expressed and secreted from plasmid phGH4R (human) (P01241 27-217): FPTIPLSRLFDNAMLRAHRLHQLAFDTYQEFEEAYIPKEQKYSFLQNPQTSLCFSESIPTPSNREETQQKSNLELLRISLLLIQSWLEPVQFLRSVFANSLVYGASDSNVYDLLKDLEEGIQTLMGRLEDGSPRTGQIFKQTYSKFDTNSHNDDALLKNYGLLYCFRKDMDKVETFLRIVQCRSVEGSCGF

B1: native-sequence aminopeptidase b2324 (product of the E. coli chromosomal yfcK gene) (enzyme)
chain: MRSLTHIAKIEPPPVRRVTYVKHYSIQPANLEFNAEGTPVSRDFDDVYFSNDNGLEETRYVFLGGNQLEVRFPEHPHPLFVVAESGFGTGLNFLTLWQAFDQFREAHPQAQLQRLHFISFEKFPLTRADLALAHQHWPELAPWAEQLQAQWPMPLPGCHRLLLDEGRVTLDLWFGDINELTSQLDDSLNQKVDAWFLDGFAPAKNPDMWTQNLFNAMARLARPGGTLATFTSAGFVRRGLQDAGFTMQKRKGFGRKREMLCGVMEQTLPLPCSAPWFNRTGSSKREAAIIGGGIASALLSLALLRRGWQVTLYCADEAPALGASGNRQGALYPLLSKHDEALNRFFSNAFTFARRFYDQLPVKFDHDWCGVTQLGWDEKSQHKIAQMLSMDLPAELAVAVEANAVEQITGVATNCSGITYPQGGWLCPAELTRNVLELAQQQGLQIYYQYQLQNLSRKDDCWLLNFAGDQQATHSVVVLANGHQISRFSQTSTLPVYSVAGQVSHIPTTPELAELKQVLCYDGYLTPQNPANQHHCIGASYHRGSEDTAYSEDDQQQNRQRLIDCFPQAQWAKEVDVSDKEARCGVRCATRDHLPMVGNVPDYEATLVEYASLAEQKDEAVSAPVFDDLFMFAALGSRGLCSAPLCAEILAAQMSDEPIPMDASTLAALNPNRLWVRKLLKGKAVKAG
- Area % des-phe hGH, control strain lysate, 37° C., 0 h (LC-MS): 0.36 Area %
- Area % des-phe hGH, control strain lysate, 37° C., 15 h (LC-MS): 46.8 Area %
- Area % des-phe hGH, control strain lysate, 37° C., 24 h (LC-MS): 55.3 Area %
- Area % des-phe hGH, control strain lysate, RT, 0 h (LC-MS): 0.36 Area %
- Area % des-phe hGH, control strain lysate, RT, 15 h (LC-MS): 1.24 Area %
- Area % des-phe hGH, control strain lysate, RT, 24 h (LC-MS): 2.15 Area %
- Area % des-phe hGH, control strain lysate, RT, 42 h (LC-MS): 3 Area %
